{"source": "paper PMC6114107", "about": "“Characterization and validation of Entamoeba histolytica pantothenate kinase as a novel anti-amebic drug target” (International Journal for Parasitology: Drugs and Drug …, 2018)", "molecules": {"B1": {"name": "E. histolytica pantothenate kinase (Entamoeba histolytica HM-1:IMSS) (protein)", "chain": "MSQPSHSIPSKHSVLSNEDIEHDDHITHTFEQYEFTKTQSPLPLNGVRRRTAPLSADMGGTMTKIVFWIPGDTDIDLPKYVEPEESVMSGFDLYPDPVLKVTMNSKGENELCFMKFPTSQIPEFIHYAKTSKLKEIYGIGNLQILNVTGGGAYKFANLLKDEMDLEVRQQDEMRCLVLGVNFLLLCCQEKLCFRFVNKTKLYREVTPEIFPYLLVNVGSGVSILKVTAPEKYERVSGSLIGGGTFWGLCCLLTNYKSFDEMLQAAQYGQHQNVDLYVKDIYGRCYDSVGLAADMMASSFGKIQKVPCGEAKNHYSEADIAQGLMMMVCGSIAHLGFELTKLHHINRIFYTGGFVAHNPVVWEAITTMLTTWSSGSVDANFLEYDGYFGSIGALLLSEYEEELM"}}, "type_in_all_cases": "biochemical, Entamoeba histolytica", "key": {"[1]": {"system": "recombinant EhPanK", "test": "Regulation of EhPanK by CoA, acetyl CoA and malonyl CoA (double-reciprocal plots)", "settings": "inhibitor 0, 0.5, 2 mM", "from_the_text": "PanK from other organisms was reported to be negatively regulated by allosteric inhibition with CoA, acetyl CoA, and malonyl CoA ([Calder et al., 1999]; [Takagi et al., 2010]; [Vallari et al., 1987]). […] The mechanisms of inhibition by acetyl CoA were not clear but seemed to be the mixed type with respect to ATP and pantothenate (Fig. 3).\nFig. 2 Effect of CoA, acetyl CoA, and malonyl CoA on the pantothenate kinase activities. Relative activities of EhPanK in the presence of various concentrations of inhibitors to those without inhibitors are shown. […] The assays were carried out three times independently, and the results are shown as means ± SEM of triplicates.\nFig. 3 Double-reciprocal plots of the recombinant EhPanK in the presence of CoA (A and B), malonyl CoA (C and D), or acetyl CoA (E and F). The enzymatic activities were determined with various concentrations of ATP and 0.2 mM pantothenate (A, C, and E) or various concentrations of pantothenate and 100 μM ATP (B, D, and F), in the presence of three concentrations of inhibitors (0, 0.5, and 2 mM). Data are shown in means ± SEM of triplicate analyses."}, "[2]": {"substrate": "Nc1ncnc2c1ncn2[C@@H]1O[C@H](COP(=O)(O)OP(=O)(O)OP(=O)(O)O)[C@@H](O)[C@H]1O", "test": "Kinetic parameters of recombinant EhPanK for its substrates", "settings": "other: apparent Km at saturating concentration of the other substrate, 37 °C, pH 6, mean ± SEM", "procedure": "(§1) PanK and DPCK activities in the cell lysate were measured with coupled assays using ADP Hunter™ Plus Assay kit (DiscoverX, US) according to the manufacturer's instructions. […] Kinetic data were estimated by curve fitting with the Michaelis–Menten equation using GraphPad Prism (GraphPad Software Inc., San Diego, USA). This experiment was repeated three times in triplicate with proteins isolated from two independent extractions, and kinetic values are presented as the means ± S.E. for three independent kinetic assays.\n(§2) Table 1 summarizes the apparent Km, Vmax, and Kcat values for EhPanK using pantothenate and ATP as substrates.\n(§3) Fig. S5. Optimum pH and temperature (A) and initial rate plots (B, C) of EhPanK. B) The velocity of EhPanK reaction at various pantothenate concentrations in the presence of 25, 50, or 100 μM ATP. C). The velocity of EhPanK reaction at various ATP concentrations in the presence of 8, 64, or 128 μM pantothenate. […] Assays for panes B and C were conducted at 37 °C at pH 6. Data are shown in mean ± SEM of three replicates."}, "[3]": {"substrate": "CC(C)(CO)[C@@H](O)C(=O)NCCC(=O)O", "test": "Kinetic parameters of recombinant EhPanK for its substrates", "settings": "other: apparent Km at saturating concentration of the other substrate, 37 °C, pH 6, mean ± SEM", "procedure": "as §1, §2, §3"}}, "data": [{"molecule": "CC(=O)SCCNC(=O)CCNC(=O)[C@H](O)C(C)(C)COP(=O)(O)OP(=O)(O)OC[C@H]1O[C@@H](n2cnc3c(N)ncnc32)[C@H](O)[C@@H]1OP(=O)(O)O", "note": "[acetyl CoA]", "values": [{"measurement": "Mechanism of inhibition with respect to ATP", "setting": "[1]; various ATP, 0.2 mM pantothenate", "value": "mixed type"}, {"measurement": "Mechanism of inhibition with respect to pantothenate", "setting": "[1]; various pantothenate, 100 μM ATP", "value": "mixed type"}]}, {"molecule": "B1", "values": [{"measurement": "Km", "setting": "[2]", "value": "41.4 ± 3.9", "unit": "µM"}, {"measurement": "Vmax", "setting": "[2]", "value": 2.84, "unit": "µmol/min/mg"}, {"measurement": "kcat", "setting": "[2]", "value": "2.15 ± 0.153", "unit": "s⁻¹"}, {"measurement": "kcat/Km", "setting": "[2]", "value": "51800 ± 3670", "unit": "M⁻¹ s⁻¹"}, {"measurement": "Km", "setting": "[3]", "value": "53.2 ± 7.1", "unit": "µM"}, {"measurement": "Vmax", "setting": "[3]", "value": 2.79, "unit": "µmol/min/mg"}, {"measurement": "kcat", "setting": "[3]", "value": "2.11 ± 0.075", "unit": "s⁻¹"}, {"measurement": "kcat/Km", "setting": "[3]", "value": "39700 ± 1330", "unit": "M⁻¹ s⁻¹"}]}]}
